Patent US20100021538A1, “PHARMACEUTICAL COMPOSITIONS CONTAINING HEPARIN DERIVATIVES” (priority 2008, published 2010)

Test: Particle size of heparin-DOCA solutions with solubilizers by electrophoretic light scattering
Type: physicochemical
Conditions: aqueous 1 mg/ml heparin-DOCA solution, solubilizer added at 0.1 mg/ml, ELS-8,000, N.D. = particles were not detected
Experimental: To measure the formation of self-assembled nanoparticles in aqueous solutions of heparin-DOCA and to observe the prevention of particle formation due to a solubilizer, the solubilizers shown in Table 1 were added at a concentration of 0.1 mg/ml to 1 mg/ml of heparin-DOCA solution, and electrophoretic light scattering spectrophotometry (ELS-8,000) was used to measure the size of particles in the solution.

Q: Which “Particle Size (nm)” value does the source give for Heparin-Deoxycholic Acid [Heparin-DOCA] here?
A: 369.5 nm

Q: What about the “Particle Size (nm)” value (listed as heparin-deoxycholic acid) of the same substance?
A: 370 nm
